Source: the supplement of paper PMC9170038

System: K4 kissing-loop RNA reporter
Experiment: apparent KD of K4 kissing-loop reporter; higher = weaker reporter binding
Details: Eterna round: R107; input ligand: tryptophan 2.4 mM
Protocol: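 RNA-MaP round R107: designed RNA switches with theophylline, tryptophan, arginine or FMN aptamers are transcribed on-chip within common flanks. They are titrated with a labelled K4 kissing-loop RNA reporter in RNA-MaP buffer (100 mM Tris pH 7.5, 80 mM KCl, 4 mM MgCl2), without ligand or with the indicated ligand. Median apparent KD per design.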
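Note: bound reporter read as fluorescence of individual clusters on recovered sequencing chips by microscopy, with normalized cluster intensities fitted with a binding model.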

In order of rising “apparent KD of K4 kissing-loop reporter” value:
1. AACUUUUAAUGAAUUACAUUUUAUUUUUCUCGAGGACCGGUACGGCCGCCACUCGUACUAUAGUGAUGUUAUAGAUAAGUCCUAA [JR_ExcTryptoA_Sub020]  0.0687 µM
2. AAUAUACAGGGAAGGAGCGUCGUCCAGUGAUGUUGGAGUUAAAUACCAGUGAUGUUGGUUAGGCAGGUAGGUCGCCCUAAAGUAU [KL-XARG-B15]  0.0739 µM
3. AAACAUUGGUGCGAUACCAGCUGAUCGGAAACGAUCUUGCUGGAGUGAUGUUCCAAGUAAAGCCCUUGGCAGCGCACCGAUGAAA [MAT - Same State Theophlline B - Mod of Eli - D21]  0.0757 µM
4. AUGAGGAACAGUGAUCCUAUUCCAUGGGAAGGAGCGUAGGAUACUACAGGUAGGUCGCCCAGUGAUGUUGGGCGCGUGUUCUUGG [Soririza]  0.117 µM
5. GGAUAGGACAGAGGAUAUGGAGAGUCUACAAAGUAGGCUCAUAAUCCUUGAAUGGAAGUGAUGUUUCUAGAAGGCUGUCCUAUCG [FmnBX 18 - #SwitchBubble #StaticStem #Palindromic]  0.136 µM
6. CCAUCGCUAUUCGAUACCAGCUACUUAGUGAUGUUAAGUUAAAAUUAAUUGUAGAUUAAAAGCCCUUGGCAGCGAAUAGUGAUGG [Theophylline B K4 20]  0.152 µM
7. GGGAAACCCAAUCAUACGGCGGUUCUUAGUCGAGGACCGGUACGGCCGCCACUCGAACUUGCUAGUGAUGUUAGCUUAUCGAGCU  0.162 µM
8. GCUAUGGUAGGAAGGAGCGCUUAUUUAUUAAUAAGAGUGAUGUUCGAUAAUAAAUAUUUAUAGCAGGUAGGUCGCCUACUAUAGC [Arginine B K4 1]  0.204 µM
9. AGCCUGAUAUAAGGAUAUCCGGACCGAGUAACUGAGUGAUGUUCAGGUGAAUAAUGUCUCACAUUGGGAGAAGGUAUUUCAGCGA [theeternabot_sameState_KL_FMN_B_21]  0.225 µM
10. UUUUGGCCAACGGCCGCCACUCACUAGUGAUGUUAGUUUGUGUUAUUCAUGAACCCGAUGUCGUCGAGGACCGGGUUGGGUUAUA [theeternabot_exclusion_KL_Trp_B_41]  0.244 µM
11. CUUUGGAGUGAUGUUCCAGGUUGUACGGAUACCAGCCAAGCCAGAGGCCCUUGGCAGCCGAGUAUUGCAGUGAUGUUGCGAUGGG [Same State Theophylline A GF 2]  0.261 µM
12. ACCUUAUUUGCCAGUGAUGUUGGACAGGAAGGAGCGGGCAUAAGCCCAGGUAGGUCGCCUGUCAACUUUCUUAUAGCCCAAAGGU [KL-XArg-A18]  0.294 µM
13. UGUGCUGUGUAGUGUAAUGUUUUGCGGGAUACCAGAGUCUUUUUAUUCCCUUGGCAGCUUGAGUGAUGUUUGAUGCUGUUCUUGU [bbtbmullin]  0.313 µM
14. CCCUUGGUAUAUCGGUAUGUAUAAGCGGAUACCAGCCAGGACAACGGCCCUUGGCAGCCGGGCAGGCAGAGUGAUGUUCAUGCUA [theeternabot_exclusion_KL_Theo_A_22]  0.346 µM
15. AAUAUAGUGAUGUUAUAUAAGAAGGAGUUACGAGGACCGGUACGGCCGCCACUCGAAACGAGUGAUGAUUUGGGAGAUUGGGUUG [SSTryptA.N]  0.37 µM
16. AAGGUUGUGCAUGGGAGUGAUGUUCCCACGCAGGAUAUCGCUCUCGCGAGAAGGGCGAGCACAACCGCUCAAGAAACUUGAGCAA [Omei KL FMN A SS C v3]  0.388 µM
17. UUUAAAUAUAGUGAUGUUAUAUAACAAUGACGAGGACCGGUACGGCCGCCACUCGAGAGAGAUAAUGGUAAAAUAAAUAAUUUUC [AstrosSSTryA#3]  0.389 µM
18. UGUCAUUGGUCGGCCGCCACUUCAUAAAGAGUGAUGUUCUGAAAGACGGAUCGAAAGAUCUGUCGGAGGACCGGGACCGAUGACU [FiskerMod 2 - Jieux - Same State - Tryptophan B]  0.397 µM
19. UGUACCGAGUCAGGAUAUGGCGUCGAAAGACGAAUCUUAGUGAUGUUAGGGAUCUGCGAAAGCAGUCUAGAAGGGACUUGGUACU [FmnBS 26 U37+U68]  0.462 µM
20. UUGUUUGGUUGAGAGGUUGGGCGAGAUGAUACCAGUAGAGAAGAAUACCCUUGGCAGCAUAAGAAAGAUAUAGUGAUGUUGUAUA [SSTheophA.O]  0.475 µM
21. GCCGUACGCAUGGAUACCAGAUGGCACUAUAAUCUCCCAGAGUGAUGUUCUGGCCUGCCUAUCCCUUGGCAGCCAUGCGUACGGC  0.585 µM
22. GCGUCCAUGUAUGAUACCAGACUUUUUUUAGUAGGUGACGAUAGUGAUGUUAUACGUCAAGUCCCUUGGCAGCAUGACCUAUUAU [theeternabot_exclusion_KL_Theo_B_23]  0.587 µM
23. CUUGGUCUACGAAGGAGCGCCGUGCAGUGAUGUUGCAGUCAGAUCGAGUGAUGUUUCGGGCGGCAGGUAGGUCGCGUGGCCCUCU [Excusion Arginine B GF 27]  0.591 µM
24. UGAUACCAGACGGCCGCCACUCCUGCAAGUCAAAGACUUGCUAAAGGAAUCGUCCAGUGAUGUUGGAGGACCGGGUCUGGUAUCU [TrypBX 18 #SwitchBubble #Palindromic #StaticStem]  0.602 µM
25. AAAAUAACCCAGUGAUGUUGGUAACCAGAUACCAGCGACGAAAGUCGCCCUUGGCAGCUGUGGACGUACAAAAUAAGUACGUCCU  0.649 µM
26. GCGCGCGGCGGAGGAUAUAGCCGGUGGUCCGGGAAAGUGAGUGAUGUUCGCGGAGUUCUGGAUAUGUUAGAAGGCCGCCGCGCGC [qwertyuiopasdfghjklzxcvbnm]  0.718 µM
27. CAGCGGAGUGAUGUUCUGCUUACUCCGGAUACCAGCUUCGCCAGAGGCCCUUGGCAGCCGGGCGGCUCAGUGAUGUUGGGUUGCU [Same State Theophylline A GF 16]  0.765 µM
